# According to PMC10615762:
# Target: prefusion-stabilized SARS-CoV-2 spike protein (S-clamp) (SARS-CoV-2)
# Assay: SEC
substance,measurement,value
prefusion-stabilized SARS-CoV-2 spike protein (S-clamp),stoichiometry N,3
